Like-named read-outs stand apart in the source and are kept apart here. Starred links: 1 amine or outer side, 2 acyl side, 3 side chain; linkers in the order of their positions; H or OH if unused. Primed or numbered codes have the meaning given here. *: point of attachment. Kbt‑6‑CONH = ketobenzothiazole-6-CONH (amide link to Val), O=C(c1ccc2nc([*:1])sc2c1)[*:2]; kt = C-terminal ketothiazole, c1csc(*)n1; kt″ = ketothiazole, c1csc(*)n1
Key:
[1] = target: Ac-Ala-Arg-Leu-P1-ACC, P1 = L-Trp (W)
[2] = target: Ac-Ala-Arg-Leu-P1-ACC, P1 = L-Asn (N)
[3] = target: Ac-Ala-Arg-Leu-P1-ACC, P1 = L-Met (M)
[4] = target: Ac-Ala-Arg-Leu-P1-ACC, P1 = L-Val (V)
Ac-Ala-Arg-Leu-Arg-ACC [5] = target: Ac-Ala-Arg-Leu-Arg-ACC
[6] = target: Ac-Ala-Arg-Leu-P1-ACC, P1 = L-Ser (S)
[7] = target: Ac-Ala-Arg-Leu-P1-ACC, P1 = Gly (G)
[8] = target: Ac-Ala-Arg-Leu-P1-ACC, P1 = L-His (H)
[9] = target: Ac-Ala-Arg-Leu-P1-ACC, P1 = L-Gln (Q)
[10] = target: Ac-Ala-Arg-Leu-P1-ACC, P1 = L-Ile (I)
[11] = target: Ac-Ala-Arg-Leu-P1-ACC, P1 = L-Leu (L)
[12] = target: Ac-Ala-Arg-Leu-P1-ACC, P1 = L-Glu (E)
[13] = target: Ac-Ala-Arg-Leu-P1-ACC, P1 = L-Tyr (Y)
[14] = target: Ac-Ala-Arg-Leu-P1-ACC, P1 = L-Phe (F)
[15] = target: Ac-Ala-Arg-Leu-P1-ACC, P1 = L-Asp (D)
[16] = target: Ac-Ala-Arg-Leu-P1-ACC, P1 = L-Lys (K)
[17] = target: Ac-Ala-Arg-Leu-P1-ACC, P1 = L-Ala (A)
[18] = target: Ac-Ala-Arg-Leu-P1-ACC, P1 = L-Pro (P)
[19] = target: Ac-Ala-Arg-Leu-P1-ACC, P1 = L-Thr (T)
[20] = target: Ac-His(3Bom)-Agp-hLeu-Arg-ACC
Ac-Ala-Arg-Leu-Arg-ACC [21] = target: Ac-Ala-Arg-Leu-Arg-ACC; remark: listed apart in the source
Boc-QAR-AMC = target: T1, Boc-QAR-AMC
T1 sequence (peptide, N-terminal Boc; C-terminal AMC): QAR

[22] = target: Hepatocyte Growth Factor Activator (HGFA) serine protease domain, N-terminal His-tag, recombinant (Homo sapiens (Human)) (UniProt Q04756); assay: fluorogenic inhibition assay
recombinant thrombin [23] = assay: chromogenic inhibition assay
Factor Xa [24] = assay: chromogenic inhibition assay
[25] = target: T2, Recombinant human hepsin (4776-SE-010, R&D Systems), activated (human, UniProt P05981); assay: fluorogenic inhibition assay
Method: (§1) Inhibitors (11-pt serial dilutions, 0-20 μM final concentration in reaction) were serially diluted in DMSO (2% DMSO final concentration) and then mixed with either recombinant serine protease domain of HGFA [Z. Han, P. K. Harris, D. E. Jones, R. Chugani, T. Kim, M. Agarwal, W. Shen, S. A. Wildman, J. W. Janetka, Acs Med Chem Lett 2014, 5, 1219-1224], matriptase (Charles Craik, UCSF) or hepsin* (#4776-SE-010, R&D Systems, Minneapolis, Minn.) in black 384 well plates (Corning #3575. Corning, N.Y.). […] The final substrate concentrations for all assays were at the Kₘ for the respective enzymes. Changes in fluorescence (excitation at 380 nm and emission at 460 nm) were measured at room temperature over time in a Biotek Synergy 2 plate reader (Winnoski, Vt.). Using GraphPad Prism version 6.04 software program, (GraphPad Software, San Diego, Calif., www.graphpad.com), a four parameter curve fit was used to determine the inhibitor IC₅₀s from a plot of the mean reaction velocity versus the inhibitor concentration. The IC₅₀ values represent the average of three separate experimental determinations.

[26] = target: T3, matriptase (Charles Craik, UCSF), recombinant (Homo sapiens (Human), UniProt Q9Y5Y6); assay: fluorogenic inhibition assay
T3 sequence: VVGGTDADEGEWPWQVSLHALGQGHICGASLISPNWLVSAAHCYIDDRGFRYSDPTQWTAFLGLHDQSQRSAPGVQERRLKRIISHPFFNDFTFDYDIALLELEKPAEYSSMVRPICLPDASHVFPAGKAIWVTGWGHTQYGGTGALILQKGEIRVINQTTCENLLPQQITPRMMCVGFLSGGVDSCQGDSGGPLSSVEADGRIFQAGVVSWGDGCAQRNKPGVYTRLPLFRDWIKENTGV
Method: as §1

[27] = target: Hepatocyte Growth Factor Activator (HGFA) serine protease domain, N-terminal His-tag, recombinant (Homo sapiens (Human)) (UniProt Q04756); assay: fluorogenic inhibition assay; remark: listed apart in the source
[28] = target: T4, matriptase (Charles Craik, UCSF), recombinant (Homo sapiens (Human)) (UniProt Q9Y5Y6)
T4 sequence: T3 sequence

[29] = target: Hepatocyte Growth Factor Activator (HGFA) serine protease domain, N-terminal His-tag, recombinant (Homo sapiens (Human)) (UniProt Q04756)
[30] = target: Recombinant human hepsin (4776-SE-010, R&D Systems), activated (human) (UniProt P05981)
[31] = target: T3, matriptase (Charles Craik, UCSF), …; assay: fluorogenic inhibition assay; remark: listed apart in the source
[32] = target: Hepatocyte Growth Factor Activator (HGFA) serine protease domain, N-terminal His-tag, recombinant (Homo sapiens (Human)) (UniProt Q04756); assay: fluorogenic inhibition assay; remark: listed apart in the source
[33] = target: T2, Recombinant human hepsin (4776-SE-010, …); assay: fluorogenic inhibition assay; remark: listed apart in the source
[34] = target: T3, matriptase (Charles Craik, UCSF), …; assay: fluorogenic inhibition assay; remark: listed apart in the source
recombinant thrombin [35] = assay: selectivity inhibition assay
Trypsin = assay: selectivity inhibition assay
Factor Xa [36] = assay: selectivity inhibition assay
[37] = target: T2, Recombinant human hepsin (4776-SE-010, …); assay: fluorogenic inhibition assay; remark: listed apart in the source
[38] = target: Hepatocyte Growth Factor Activator (HGFA) serine protease domain, N-terminal His-tag, recombinant (Homo sapiens (Human)) (UniProt Q04756); remark: listed apart in the source

Q: Which results are given for “Hepatocyte Growth Factor Activator (HGFA) serine protease domain, N-terminal His-tag, recombinant (from UniProt Q04756) (enzyme)”?
A: Km of fluorogenic substrate (Boc-QLR-AMC): 37 µM; % activity, P1 position [1]: 0.73%; % activity, P1 position [2]: 0%; % activity, P1 position [3]: 0%; % activity, P1 position [4]: 0%; % activity, P1 position (Ac-Ala-Arg-Leu-Arg-ACC [5]): 100%; % activity, P1 position [6]: 0%; % activity, P1 position [7]: 0%; % activity, P1 position [8]: 0%; % activity, P1 position [9]: 0%; % activity, P1 position [10]: 0%; % activity, P1 position [11]: 0%; % activity, P1 position [12]: 0%; % activity, P1 position [13]: 0%; % activity, P1 position [14]: 0%; % activity, P1 position [15]: 0%; % activity, P1 position [16]: 0.99%; % activity, P1 position [17]: 0%; % activity, P1 position [18]: 0%; % activity, P1 position [19]: 0%; kcat/KM [20]: 28100; kcat/KM (Ac-Ala-Arg-Leu-Arg-ACC [21]): 3140; kcat/KM (NH2-Leu-DTrp-Nle-Arg-ACC): 17700; kcat/KM (Ac-Agp-hArg-Leu-Arg-ACC): 41300

Q: Which results are given for “Recombinant human hepsin (4776-SE-010, R&D Systems), activated (from UniProt P05981) (enzyme)”?
A: Km of fluorogenic substrate (Boc-QAR-AMC): 156 µM; % activity, P1 position [1]: 0.7%; % activity, P1 position [2]: 0%; % activity, P1 position [3]: 0%; % activity, P1 position [4]: 0%; % activity, P1 position (Ac-Ala-Arg-Leu-Arg-ACC [5]): 100%; % activity, P1 position [6]: 0.2%; % activity, P1 position [7]: 0.07%; % activity, P1 position [8]: 0.17%; % activity, P1 position [9]: 0%; % activity, P1 position [10]: 0.08%; % activity, P1 position [11]: 0.03%; % activity, P1 position [12]: 0.13%; % activity, P1 position [13]: 0.3%; % activity, P1 position [14]: 0.12%; % activity, P1 position [15]: 0%; % activity, P1 position [16]: 2.34%; % activity, P1 position [17]: 0.49%; % activity, P1 position [18]: 0.04%; % activity, P1 position [19]: 0.45%

B1: Ac-KQLR(SEQ ID NO: 1)-kt (peptide)
peptide: Ac-KQLR-{kt″}
SMILES: CC(=O)N[C@@H](CCCCN)C(=O)N[C@@H](CCC(N)=O)C(=O)N[C@@H](CC(C)C)C(=O)N[C@@H](CCCNC(=N)N)C(=O)c1nccs1
Q: Which results are given for B1?
A: Ki [22]: 70 nM; Ki (recombinant thrombin [23]): > 20000 nM; Ki (Factor Xa [24]): 170 nM; Ki [25]: 0.19 nM; Ki [26]: 1.6 nM; Ki [27]: 53 nM; IC50 of enzyme inhibition [28]: 5 nM; IC50 of enzyme inhibition [29]: 445 nM; IC50 of enzyme inhibition [30]: 2 nM

B2: Ac-SWLR(SEQ ID NO: 17)-kt (peptide)
peptide: Ac-SWLR-kt
SMILES: CC(=O)N[C@@H](CO)C(=O)N[C@@H](Cc1c[nH]c2ccccc12)C(=O)N[C@@H](CC(C)C)C(=O)N[C@@H](CCCNC(=N)N)C(=O)c1nccs1
Q: What does the source list for B2?
A: Ki [22]: 63 nM; Ki (recombinant thrombin [23]): 3700 nM; Ki (Factor Xa [24]): 759 nM; Ki [25]: 1.2 nM; Ki [26]: 69 nM; Ki [27]: 66 nM; Ki [31]: 66 nM; IC50 of enzyme inhibition [28]: 175 nM; IC50 of enzyme inhibition [29]: 435 nM; IC50 of enzyme inhibition [30]: 9 nM

Q: Ac-KQLR-{Kbt‑6‑CONH-Val-NH2} [Ac-KQLR(SEQ ID NO: 1)-Kbt-Val-NH2] was tested. Which Ki [22] did it give?
A: Its Ki is 12 nM.

Q: And the Ki [32]?
A: The Ki was 13 nM.

Q: What about the fold change of potency against Ac-KQLR-kbt (7) [32] of the same molecule?
A: Its fold change of potency against Ac-KQLR-kbt (7) is 2 fold.

Q: What about the Ki [33] of the same molecule?
A: Its Ki is 0.29 nM.

Q: What about the Ki [34] of the same molecule?
A: The Ki was 6.98 nM.

Q: And the Ki (recombinant thrombin [35])?
A: Its Ki is 3210 nM.

Q: What about the Ki (Trypsin) of the same molecule?
A: The Ki was 0.07 nM.

Q: And the Ki (Factor Xa [36])?
A: The Ki was 66 nM.

Q: And the “fold decrease of activity against Ac-KQLR-kbt (7)” value [37]?
A: Its value is > 3 fold.

Q: And the “fold decrease of activity against Ac-KQLR-kbt (7)” value [31]?
A: Its value is > 10 fold.

B3: Ac-KRLR(SEQ ID NO: 8)-kt (peptide)
peptide: Ac-KRLR-kt
SMILES: CC(=O)N[C@@H](CCCCN)C(=O)N[C@@H](CCCNC(=N)N)C(=O)N[C@@H](CC(C)C)C(=O)N[C@@H](CCCNC(=N)N)C(=O)c1nccs1
Q: For B3, which Ki [22] is on record?
A: The Ki was 12 nM.

Q: What about the Ki [25] of the same molecule?
A: The Ki was 0.57 nM.

Q: What about the Ki [26] of the same molecule?
A: Its Ki is 1.1 nM.

Q: What about the EC50 of inhibition of c-MET phosphorylation (Y1234/1235) in MDA-MB-231 cells treated with pro-HGF/HGFA reactions [38] of the same molecule?
A: The EC50 of inhibition of c-MET phosphorylation (Y1234/1235) in MDA-MB-231 cells treated with pro-HGF/HGFA reactions was 180 nM.

Q: What about the IC50 of enzyme inhibition [28] of the same molecule?
A: Its IC50 of enzyme inhibition is 14 nM.

Q: What about the IC50 of enzyme inhibition [29] of the same molecule?
A: The IC50 of enzyme inhibition was 225 nM.

Q: And the IC50 of enzyme inhibition [30]?
A: The IC50 of enzyme inhibition was 5 nM.

Source: patent US20180066015A1, “INHIBITORS OF GROWTH FACTOR ACTIVATION ENZYMES” (Washington University, published 2018)
